Test results as given in US20210340516A1, “COMPOSITIONS CONTAINING ARGINASE 1 FOR THE TREATMENT OF NEUROVASCULAR AND RETINAL VASCULAR DISORDERS” (Augusta University Research Institute, Inc., priority 2020, published 2021).

Key:
[1] = MCAO stroke model: PEG-A1 penetration into the brain (Western blot); type: in vivo, mouse; details: 60 minutes MCAO, 24 hours after stroke, perfused
Description: Western blotting: Western blotting on retina or brain was conducted as described in Fouda, A Y, et al., Cell death & Disease, 9:1001 (2018). Membranes were probed with anti-PEG (RevMAb Biosciences, 1:1000) and anti-albumin (Bethyl Laboratories, 1:5000). Uncropped blots are included in FIG. 22.
MCAO model: C57BL/6J mice (12-16 week-old male, 25-30 g) were subjected to middle cerebral artery occlusion (MCAO) using the intraluminal filament technique (Docol 602145) for 60-minutes followed by reperfusion as described in Eldahshan, et al., American Journal of Physiology Heart and Circulatory Physiology, 316:H1192-h201 (2019). […] A heating pad was used to maintain body temperature at 37° C. […] Sham surgery involved all the regular surgery steps except the filament insertion. Mice were deeply anesthetized at 24 hours and sacrificed by trans-cardial perfusion with PBS then brains were collected and sectioned for triphenyl tetrazolium chloride (TTC) staining or homogenized in RIPA lysis buffer for western blotting.
PEG-A1 treatment in acute retinal and brain injury mouse models: A pharmaceutical grade of PEG-A1 was provided as a kind gift from Bio-Cancer Treatment International Limited (BCT, Hong Kong). […] Methoxy polyethylene glycol propionic acid (MW 5,000—Sigma, Catalog number 88908-1G-F) was used as vehicle control. […]

[2] = tested on: WT C57BL/6J mice subjected to retinal ischemia-reperfusion (IR) injury; assay: Retinal ischemia-reperfusion (IR) injury: neuronal survival by NeuN labeling of retinal flat-mounts; type: in vivo, mouse; details: 25 mg/kg i.p. at 3 hours and day 4, 7 days post-injury; vehicle group 40%
Description: Mouse retinal ischemia-reperfusion (IR) injury and traumatic optic neuropathy (TON) models: All experiments were performed in accordance with the ARVO Statement for the Use of Animals in Ophthalmic and Vision Research and were approved by the institutional animal care and use committee (Animal Welfare Assurance no. D16-00197). Wild-type (WT) C57BL/6J mice (10-12 weeks old) were anesthetized using ketamine/xylazine mixture then subjected to retinal ischemia-reperfusion (IR) injury or optic nerve crush (ONC) to model traumatic optic neuropathy (TON) as described in Shosha, et al., Cell death & disease, 7:e2483-e (2016) and Xu, et al., Frontiers in Neuroscience, 12:970 (2018). […]
Evaluation of retinal neurodegeneration: Retina flat-mounts and explants were immunolabeled for the neuronal marker, NeuN (Millipore), as previously described in Shosha, et al., Cell death & disease, 7:e2483-e (2016). Images were collected and analyzed in a blinded fashion using a semi-automated method. […] NeuN-positive cells were quantified using ImageJ software ‘Batch processing’ function. […] The macro was validated every time it was used to make sure it is compatible with the set of images being analyzed. […]

B1: PEG-A1: recombinant human arginase (rhArg) covalently attached to methoxy polyethylene glycol (mPEG-SPA; MW 5,000) via succinamide propionic acid (SPA) linker (protein, UniProt P05089 1-322, looked up)
Arginase-1: MSAKSRTIGIIGAPFSKGQPRGGVEEGPTVLRKAGLLEKLKEQECDVKDYGDLPFADIPNDSPFQIVKNPRSVGKASEQLAGKVAEVKKNGRISLVLGGDHSLAIGSISGHARVHPDLGVIWVDAHTDINTPLTTTSGNLHGQPVSFLLKELKGKIPDVPGFSWVTPCISAKDIVYIGLRDVDPGEHYILKTLGIKYFSMTEVDRLGIGKVMEETLSYLLGRKKRPIHLSFDVDGLDPSFTPATGTPVVGGLTYREGLYITEEIYKTGLLSGLDIMEVNPSLGKTPEEVTRTVNTAVAITLACFGLAREGNHKPIDYLNPPK
modifications: mPEG-SPA 5 kDa conjugate
notes: recombinant human arginase (rhArg) covalently attached to methoxy polyethylene glycol (mPEG-SPA; MW 5,000) via succinamide propionic acid (SPA) linker
anti-PEG immunoreactivity in stroked brains (Western blot, also anti-A1) [1]: strong band | neuronal survival after retinal IR (NeuN, % of sham retina) [2]: 62%
